We go through 1 substance from patent US20240424125A1.

For assay [1], the target named is human FRα on cells (human) (UniProt P15328). As to the kind of experiment: flow cytometry on IGROV-1 cells (endogenous FRα), negative control. Details: unit not given here. (In general: Flow cytometry measures light scatter and fluorescence of single cells or particles in a stream.)
Assay [2] has the same target. Put plainly: flow cytometry on JEG-3 cells (endogenous FRα), negative control. Details: unit not given here.

Chain of human FRα on cells (human) (P15328 25-234 limits assumed): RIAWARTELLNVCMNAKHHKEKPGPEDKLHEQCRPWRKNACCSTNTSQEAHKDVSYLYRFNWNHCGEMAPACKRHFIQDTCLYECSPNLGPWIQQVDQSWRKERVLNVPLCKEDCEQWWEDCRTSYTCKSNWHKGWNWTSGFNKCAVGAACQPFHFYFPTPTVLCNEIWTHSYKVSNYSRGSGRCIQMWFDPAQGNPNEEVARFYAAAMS

In the case of Human IgG (antibody), the results for the Bmax in assay [1] and in assay [2] were 208 and 144, respectively.
